What was measured:
[1] = target: T1, cynomolgus monkey PD-L1 on 293F cells (W315-293F.cynoPro1.2A2) (cynomolgus monkey, UniProt G7PSE7 19-290); test: FACS on cynomolgus PD-L1 293F cells
T1 construct: whole, on cells; also called cell surface monkey PD-L1; cynoPD-L1
Method: (§1) After washing with 1×PBS/1% BSA, the secondary antibody PE-labeled goat anti-human IgG was applied and incubated with cells at 4° C. for 1 hour. […] Human IgG1 and IgG4 isotype antibodies were used as negative control. The cells were then washed and resuspended in 1×PBS/1% BSA. MFI of the cells was measured by a flow cytometer (BD) and analyzed by FlowJo (version 7.6.1).

[2] = target: PD-L1 (target of the serum stability flow cytometry); test: flow cytometry binding to PD-L1 of AP3R2-1A3-z12-hIgG1 kept 0, 1, 4, 7 or 14 days in human serum at 37 C
Sequence of PD-L1 (target of the serum stability flow cytometry) (chain, as listed by the source): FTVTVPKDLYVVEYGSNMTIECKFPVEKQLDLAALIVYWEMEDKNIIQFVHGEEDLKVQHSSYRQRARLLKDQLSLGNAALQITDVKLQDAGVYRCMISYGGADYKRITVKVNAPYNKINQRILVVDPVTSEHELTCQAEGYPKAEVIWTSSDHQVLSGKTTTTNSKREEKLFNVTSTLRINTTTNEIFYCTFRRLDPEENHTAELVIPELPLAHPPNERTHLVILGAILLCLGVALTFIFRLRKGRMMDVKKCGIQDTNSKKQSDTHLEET
Method: Fresh human serum was prepared from healthy donor by centrifugation. Testing antibody was mixed with serum and ensure the serum content >90% of total volume. The mix aliquots were incubated at 37° C. for 0 day, 1 day, 4 days, 7 days and 14 days, respectively. At the indicated time point the samples were quickly-frozen in liquid nitrogen and stored at −80° C. until analysis. The bindings to PD-L1 of the aliquots at above time points were evaluated by flow cytometry, respectively.

[3] = target: T2, human PD-L1 on CHO-K1 cells (W315-CHO-K1.hPro1.C11) (human, UniProt Q9NZQ7 19-290); test: FACS affinity on human PD-L1 cells, quantitative beads
T2 construct: whole, on cells; also called cell surface human PD-L1; Human PD-L1-expressing CHO-K1 cell
T2 sequence (Q9NZQ7 19-290): as the sequence (chain, as listed by the source) above
Method: (§2) Binding affinities of testing antibodies to cell surface human, cynomolgus and mouse PD-L1 were determined by flow cytometry on the engineering cell lines, respectively. The cells were transferred in to 96-well U-bottom plates (BD) at a density of 5×10⁴ cells/well. Antibodies to be tested were 1: 2-fold serially diluted in 1% BSA/1×PBS and incubated with cells at 4° C. for 1 hr. Then, the plates were centrifuged at 1500 rpm for 4 mins and the supernatant was discarded. The secondary antibody, Alexa647 conjugated goat anti-human IgG Fc (Jackson, Cat No. 109-605-098, Lot No. 121363), was added to re-suspend cells and incubated at 4° C. in the dark for 30 min. The cells were washed once and re-suspended in 100 μL 1% BSA/1×PBS, then measured by flow cytometry (BD Canto II) and analyzed by FlowJo. Fluorescence intensity was converted to bound molecules/cell based on the quantitative beads (Quantum™ MESF Kits, Bangs Laboratories). KD value was calculated by Graphpad Prism5.

[4] = target: human serum Albumin (human, UniProt P02768 25-609); test: non-specific binding ELISA, antigen coated at 2 ug/mL
Method: Non-specific binding ELISA was performed in 96-well high binding plates (Nunc-Immuno Plate, Thermo Scientific). The plate was coated with various antigens (as listed in the left column of Table 11) at 2 μg/mL overnight at 4° C. After blocking with 2% BSA-PBS, 10 μg/ml antibodies were added to the plate and incubated for 2 hours. […] The HRP signal was detected by adding TMB peroxidase substrate and the reaction was stopped after 12 minutes using 2M HCl. The absorbance at 450 nm was read using a microplate reader (Molecular Device). All incubation steps were performed at room temperature. The plate was washed with PBST (0.05% Tween20-PBS) between steps.

[5] = target: T2, human PD-L1 on CHO-K1 cells …; test: FACS on human PD-L1 CHO-K1 cells
Method: as §1

[6] = target: T3, mouse PD-L1 on 293F cells (W315-293F.mPro1.C1) (mouse, UniProt Q9EP73 19-290); test: FACS affinity on mouse PD-L1 cells, quantitative beads
T3 construct: whole, on cells; also called cell surface mouse PD-L1; Mouse PD-L1-expressing 293F cell
T3 sequence (Q9EP73 19-290): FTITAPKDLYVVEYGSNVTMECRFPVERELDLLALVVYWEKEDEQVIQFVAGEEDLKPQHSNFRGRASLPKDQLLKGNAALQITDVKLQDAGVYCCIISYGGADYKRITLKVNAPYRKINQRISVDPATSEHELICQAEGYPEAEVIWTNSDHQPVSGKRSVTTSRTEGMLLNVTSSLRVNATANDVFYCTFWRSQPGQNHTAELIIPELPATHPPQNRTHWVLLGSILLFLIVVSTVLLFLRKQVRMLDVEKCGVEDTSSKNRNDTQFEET
Method: as §2

[7] = target: T1, cynomolgus monkey PD-L1 on 293F cells …; test: FACS affinity on cynomolgus PD-L1 cells, quantitative beads
Method: as §2

T1 sequence (G7PSE7 entry or part of it): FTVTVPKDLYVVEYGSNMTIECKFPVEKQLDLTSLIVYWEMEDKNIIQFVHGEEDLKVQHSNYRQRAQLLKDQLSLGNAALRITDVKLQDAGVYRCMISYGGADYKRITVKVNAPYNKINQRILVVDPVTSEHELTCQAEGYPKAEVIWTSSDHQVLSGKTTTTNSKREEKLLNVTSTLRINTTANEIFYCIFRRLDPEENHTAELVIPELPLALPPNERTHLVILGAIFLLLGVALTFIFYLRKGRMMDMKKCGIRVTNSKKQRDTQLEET

- EC50 [1]: 2.06 nM
- EC50 (read off the curve) [2]: ~0.7 nM
- Kd [3]: 0.26 nM
- binding result [4]: no binding (tested: 10 µg/ml)
- EC50 [5]: 0.458 nM
- Kd [6]: 0.69 nM
- Kd [7]: 7.3 nM
B1: AP3R2-1A3-z12-hIgG1 (Fc fusion)
chain: EVQLVESGGGLVQPGGSLRLSCAASGHFSNLAVNWFRQAPGKERELVAGILWSGGSTFYADSVKGRFTISRGNAENMLYLQMNSLRAEDTAVYYCNTGTNWGQGTLVTVSS
notes: VHH-Fc (hIgG1) fusion of the humanized VHH; also called W3156-AP3R2-1A3-z12-hIgG1; W3156 antibody; not shown: Fc of human IgG1

Reference: US20220403031A1 (WUXI BIOLOGICS IRELAND, published 2022)
